This passage reports abundance fitness results from the Human Domainome abundance scans (Beltran et al. 2025).

First the molecules themselves.
B1: Endonuclease CUE2, residues 9 to 47; numbered along this chain, P36075 (parent)
chain: HESKLSILMDMFPAISKSKLQVHLLENNNDLDLTIGLLL

± gives the uncertainty stated by the source.

This series covers variants of B1. Nature of the series: abundance fitness (aPCA) (normalised: wild type 0, dead -1); higher = more abundant; growth selection in yeast, the domain comes from the species named. Conditions: Saccharomyces cerevisiae (strain ATCC 204508 / S288c).
For the variant HESKLSILMDMFPCISKSKLQVHLLENNNDLDLTIGLLL [A14C], the abundance fitness is -0.093 ± 0.068.

For the variant HESKLSILMDMFPWISKSKLQVHLLENNNDLDLTIGLLL [A14W], the abundance fitness is -0.047 ± 0.034.

For HESKLSILMDMFPDISKSKLQVHLLENNNDLDLTIGLLL [A14D], the abundance fitness was -0.118 ± 0.13.

For HESKLSILMDMFPQISKSKLQVHLLENNNDLDLTIGLLL [A14Q], the abundance fitness stood at 0.012 ± 0.045.

For the variant HESKLSILMDMFPVISKSKLQVHLLENNNDLDLTIGLLL [A14V], the abundance fitness was -0.079 ± 0.047.

Regarding HESKLSILMDMFPTISKSKLQVHLLENNNDLDLTIGLLL [A14T], the abundance fitness was -0.163 ± 0.22.

On to HESKLSILMDMFPEISKSKLQVHLLENNNDLDLTIGLLL [A14E], for which the abundance fitness is 0.068 ± 0.039.

HESKLSILMDMFPFISKSKLQVHLLENNNDLDLTIGLLL [A14F]: the abundance fitness was -0.033 ± 0.089.

As to HESKLSILMDMFPGISKSKLQVHLLENNNDLDLTIGLLL [A14G], the abundance fitness was 0.012 ± 0.031.

On to HESKLSILMDMFPLISKSKLQVHLLENNNDLDLTIGLLL [A14L], for which the abundance fitness was -0.053 ± 0.036.

Consider HESKLSILMDMFPPISKSKLQVHLLENNNDLDLTIGLLL [A14P], for which the abundance fitness is -0.383 ± 0.076.

For HESKLSILMDMFPSISKSKLQVHLLENNNDLDLTIGLLL [A14S], the abundance fitness came to 0.068 ± 0.046.

For the variant HESKLSILMDMFPMISKSKLQVHLLENNNDLDLTIGLLL [A14M], the abundance fitness is -0.133 ± 0.061.

Consider HESKLSILMDMFPRISKSKLQVHLLENNNDLDLTIGLLL [A14R], for which the abundance fitness was -0.018 ± 0.036.

Regarding HESKLSILMDMFPAISMSKLQVHLLENNNDLDLTIGLLL [K17M], the abundance fitness was -0.307 ± 0.11.

As for HESKLSILMDMFPAISQSKLQVHLLENNNDLDLTIGLLL [K17Q], the abundance fitness turned out to be 0.013 ± 0.1.

As to HESKLSILMDMFPAISDSKLQVHLLENNNDLDLTIGLLL [K17D], the abundance fitness is -0.286 ± 0.1.

On to HESKLSILMDMFPAISFSKLQVHLLENNNDLDLTIGLLL [K17F], for which the abundance fitness is -0.343 ± 0.069.

For the variant HESKLSILMDMFPAISHSKLQVHLLENNNDLDLTIGLLL [K17H], the abundance fitness was -0.085 ± 0.086.

HESKLSILMDMFPAISTSKLQVHLLENNNDLDLTIGLLL [K17T]: the abundance fitness is -0.263 ± 0.065.

On to HESKLSILMDMFPAISPSKLQVHLLENNNDLDLTIGLLL [K17P], for which the abundance fitness is -0.082 ± 0.039.

As to HESKLSILMDMFPAISASKLQVHLLENNNDLDLTIGLLL [K17A], the abundance fitness is -0.156 ± 0.036.

As to HESKLSILMDMFPAISESKLQVHLLENNNDLDLTIGLLL [K17E], the abundance fitness is -0.122 ± 0.04.

With HESKLSILMDMFPAISRSKLQVHLLENNNDLDLTIGLLL [K17R], the abundance fitness is -0.074 ± 0.037.

On to HESKLSILMDMFPAISISKLQVHLLENNNDLDLTIGLLL [K17I], for which the abundance fitness is -0.387 ± 0.11.

On to HESKLSILMDMFPAISWSKLQVHLLENNNDLDLTIGLLL [K17W], for which the abundance fitness is -0.471 ± 0.082.

Regarding HESKLSILMDMFPAISCSKLQVHLLENNNDLDLTIGLLL [K17C], the abundance fitness was -0.356 ± 0.12.

As to HESKLSILMDMFPAISLSKLQVHLLENNNDLDLTIGLLL [K17L], the abundance fitness was -0.316 ± 0.057.

Turning to HESKLSILMDMFPAISGSKLQVHLLENNNDLDLTIGLLL [K17G], the abundance fitness was -0.255 ± 0.044.

Take HESKLSILMDMFPAISSSKLQVHLLENNNDLDLTIGLLL [K17S]: the abundance fitness is -0.129 ± 0.048.

For the variant HESKLSILMDMFPAISYSKLQVHLLENNNDLDLTIGLLL [K17Y], the abundance fitness is -0.077 ± 0.15.

As to HESKLSILMDMFPAISVSKLQVHLLENNNDLDLTIGLLL [K17V], the abundance fitness was -0.196 ± 0.042.

On to HESKLSILMDMFTAISKSKLQVHLLENNNDLDLTIGLLL [P13T], for which the abundance fitness is -0.861 ± 0.18.

For HESKLSILMDMFWAISKSKLQVHLLENNNDLDLTIGLLL [P13W], the abundance fitness was -1.04 ± 0.14.

With HESKLSILMDMFSAISKSKLQVHLLENNNDLDLTIGLLL [P13S], the abundance fitness is -0.806 ± 0.12.

On to HESKLSILMDMFPAIAKSKLQVHLLENNNDLDLTIGLLL [S16A], for which the abundance fitness is -0.026 ± 0.043.

With HESKLSILMDMFPAIWKSKLQVHLLENNNDLDLTIGLLL [S16W], the abundance fitness was -0.654 ± 0.11.

Consider HESKLSILMDMFPAIHKSKLQVHLLENNNDLDLTIGLLL [S16H], for which the abundance fitness was 0.384 ± 0.22.

Take HESKLSILMDMFPAIRKSKLQVHLLENNNDLDLTIGLLL [S16R]: the abundance fitness was -0.15 ± 0.032.

As for HESKLSILMDMFPAICKSKLQVHLLENNNDLDLTIGLLL [S16C], the abundance fitness is -0.133 ± 0.14.

As for HESKLSILMDMFPAIFKSKLQVHLLENNNDLDLTIGLLL [S16F], the abundance fitness is -0.045 ± 0.1.

For the variant HESKLSILMDMFPAITKSKLQVHLLENNNDLDLTIGLLL [S16T], the abundance fitness is -0.179 ± 0.074.

Turning to HESKLSILMDMFPAIEKSKLQVHLLENNNDLDLTIGLLL [S16E], the abundance fitness is -0.09 ± 0.042.

As to HESKLSILMDMFPAIGKSKLQVHLLENNNDLDLTIGLLL [S16G], the abundance fitness is -0.167 ± 0.032.

Turning to HESKLSILMDMFPAILKSKLQVHLLENNNDLDLTIGLLL [S16L], the abundance fitness was -0.37 ± 0.046.

On to HESKLSILMDMFPAIDKSKLQVHLLENNNDLDLTIGLLL [S16D], for which the abundance fitness is -0.048 ± 0.068.

As to HESKLSILMDMFPAIPKSKLQVHLLENNNDLDLTIGLLL [S16P], the abundance fitness was found to be 0.025 ± 0.051.

HESKLSILMDMFPAIKKSKLQVHLLENNNDLDLTIGLLL [S16K]: the abundance fitness is -0.114 ± 0.055.

On to HESKLSILMDMFPAINKSKLQVHLLENNNDLDLTIGLLL [S16N], for which the abundance fitness was -0.171 ± 0.074.

As for HESKLSILMDMFPAIMKSKLQVHLLENNNDLDLTIGLLL [S16M], the abundance fitness was -0.395 ± 0.055.

On to HESKLSILMDMFPAIQKSKLQVHLLENNNDLDLTIGLLL [S16Q], for which the abundance fitness was -0.057 ± 0.06.

Take HESKLSILMDMFPAIVKSKLQVHLLENNNDLDLTIGLLL [S16V]: the abundance fitness is -0.29 ± 0.048.

In the case of HESKLSILMDMFPAISKSKRQVHLLENNNDLDLTIGLLL [L20R], the abundance fitness was -0.853 ± 0.079.

HESKLSILMDMFPAISKSKVQVHLLENNNDLDLTIGLLL [L20V]: the abundance fitness was -0.311 ± 0.048.

Turning to HESKLSILMDMFPAISKSKCQVHLLENNNDLDLTIGLLL [L20C], the abundance fitness was -0.058 ± 0.12.

Consider HESKLSILMDMFPAISKSKWQVHLLENNNDLDLTIGLLL [L20W], for which the abundance fitness is -0.613 ± 0.058.

As to HESKLSILMDMFPAISKSKEQVHLLENNNDLDLTIGLLL [L20E], the abundance fitness is -0.748 ± 0.084.

For HESKLSILMDMFPAISKSKIQVHLLENNNDLDLTIGLLL [L20I], the abundance fitness stood at 0.161 ± 0.19.

As to HESKLSILMDMFPAISKSKKQVHLLENNNDLDLTIGLLL [L20K], the abundance fitness is -0.838 ± 0.2.

As for HESKLSILMDMFPAISKSKSQVHLLENNNDLDLTIGLLL [L20S], the abundance fitness was -0.656 ± 0.26.

Turning to HESKLSILMDMFPAISKSKQQVHLLENNNDLDLTIGLLL [L20Q], the abundance fitness is -0.705 ± 0.19.

For the variant HESKLSILMDMFPAISKSKTQVHLLENNNDLDLTIGLLL [L20T], the abundance fitness was -0.702 ± 0.16.

As for HESKLSILMDMFPAISKSKHQVHLLENNNDLDLTIGLLL [L20H], the abundance fitness was -0.559 ± 0.081.

Take HESKLSILMDMFPADSKSKLQVHLLENNNDLDLTIGLLL [I15D]: the abundance fitness is -0.293 ± 0.11.
